Assay [1] has as its target SNX3-retromer complex (Retromer + SNX3), Q96QK1. The experiment in a line: ITC; approximately 2–3 mM peptide titrated into SNX5^PX (300 μM) or the SNX3-retromer complex (10 μM Retromer + 100 μM SNX3); 100 mM HEPES pH 7.5, 300 mM NaCl, 2 mM βME, 25°C; one set of sites model (Fig 1D, 1E, 2B).
The target in assay [2] is SNX3-retromer complex (retromer VPS35/VPS26/VPS29 with SNX3), Q96QK1. The experiment in a line: ITC; Fig 1E: approximately 2–3 mM of peptides titrated into the SNX3-retromer complex (10 μM Retromer + 100 μM SNX3); 100 mM HEPES pH 7.5, 300 mM NaCl, 2 mM βME, 25°C; one set of sites model; single values of triplicates. For orientation: In ITC the heat of successive injections is recorded.

Several values for one entry are separate records, joined by “and”; a condition that tells them apart may be missing. Equal values may be shown once.

What is called Kd is a measure of binding affinity in units of concentration. As to AQPELYLLNTMDADSLVSR (modifications not checked) [DMT1-II peptide], in assay [1], the Kd turned out to be 110 µM.

With AQPELYLLNTMDADSLVSR (modifications not checked) [DMT1-II peptide (divalent metal transporter 1)], in assay [2], the Kd was 100 µM and 113 µM and 117 µM.

The values above are taken from publication PMC7082075.
